Test system: MS2 coat protein
Test: apparent KD of MS2 coat protein; higher = weaker reporter binding
Settings: Eterna round: R107
How it was run: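 The designed RNA switches were transcribed on-chip from Illumina sequencing clusters. In 100 mM Tris-HCl pH 7.5, 80 mM KCl and 4 mM MgCl2, without or with constant ligand, they were titrated with SNAP-549-labelled MS2 coat protein from 0.7 or 1.5 nM to 3 µM in twofold steps. Apparent KD is the per-design median of normalised cluster binding-curve fits.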

[1] = input ligand: theophylline 20 uM
[2] = input ligand: tryptophan 2.4 mM
[3] = input ligand: theophylline 2 mM

Sequence	apparent KD of MS2 coat protein (input ligand: arginine 13.2 mM) [nM]	apparent KD of MS2 coat protein [1] [nM]	apparent KD of MS2 coat protein [2] [nM]	apparent KD of MS2 coat protein (input ligand: none) [nM]	apparent KD of MS2 coat protein [3] [nM]
AUGCACAUCUAGGAUACCAGCACCCUUAUGUCACUAGUUAACAUGAGGAUCACCCAUGUUUGCCCUUGGCAGCCUCAUUGACCAU [theeternabot_exclusion_MS2_Theo_B_9]	59.5	92.7	59.7	–	–
AAAACACAUGAGGAUCACCCAUGUCAUGAUACCAGUCCACAUGAGGACCCUUGGCAGCAUAAAAUGGGUAACAUGAGGAUAACCC [AstrosEXyTheA#4]	26.5	48.1	23.4	–	–
UCUUGAGUUUCGGAUACCAGUGAUGUCGAUACAUGAGGAUCACCCAUGUUAGAGGAUGUACACCCUUGGCAGCCGGGUGUGGCGG [wswmullin]	25.1	42.1	44.9	36	27.5
GACAGACGAGGAAGGAGCGACAUGAGGAUCACCCAUGUUGCGGGUUUAAGGUGAACUAAGUGUCAGGUAGGUCGCCUCGCUUUUA [Diatbeat]	35.7	56.5	36.3	41.2	49.3
AAGUCAGGAGGCGAUACCAGUUACGACAUGGCCAGUUACAUGAGGAUCACCCAUGUGCGGAACCCUUGGCAGCGCUUACAUCGCU [theeternabot_exclusion_MS2_Theo_B_1]	22.5	47	24.4	–	–
ACAUGAGGAUCACCCAUGUAAUAGCGAGAAGGAGCGCGUAAGGACGCAGGUAGGUCGCUCGUGGUCCGGCCGCAAGGCCGGACCA [#1 Same State - Arginine A Attempt #10 (HarryS)]	11.1	18.6	13.2	9.24	12
AUUAACAUGAGGAUCACCCAUGUUCUCACACGAGGACCGGUACGGCCGCCACUCGGUUUGGUAUUGGUCACUAGGCAGUUAGGAG [theeternabot_sameState_MS2_Trp_A_12]	15.2	26.7	–	–	17
GGUACAUGAGGAUCACCCAUGUAUUGGUACCGAGGACCGGUACGGCCGCCACUCGCAUGACAUGAGGAUCACCCAUGUGAAACCU [SSTA DOUBLE!!! :-D #12]	29.3	51.6	–	–	59.9
UGGUACAUGGCGGCCGCCACUUCACGUAAAAUAAAAACGUGAGGAUCACCCACGUAAUAAGUUGGGAGGACCGGGUCAUGUACCU	122	344	123	321	491
ACCUGUACGAAAAGUGCAGGACAUGGUAAACGAGGACCGGUACGGCCGCCACUCGAAGAAAACAAGUGGAUCACCCUUGUCCAUG [TrypAS 4 #AlternativeMS2 #Zipper #StaticStem]	292	641	1350	622	2090
CUGCCAUGCAGAGAUACCAGUGCGCUCAGCACAUGAGGAUCACCCAUGUUGGCUGCCGAUCACCCUUGGCAGCUCUGCAUGGCAG [#04 Same State - Theophylline B]	10.9	12.5	8.66	–	–
UACAUGAGGAUCACCCAUGUCUGAACUGAAGGAGCGCUAAACAAGGCAGGUAGGUCGCGGAAUUUUGUGUGCAUAUGCAUAUGGG [9.K]	23.6	46.7	31.1	30.6	36.5
AUGUAGAACCGAAGGAGCGCGAUGACAUGAGGAUCACCCAUGUAUUUGUGGUGGCUUCGAUCGCAGGUAGGUCGCGGAAGUAGUA [#04 Exclusion - Arginine B]	96.6	162	211	128	346
AGUAGACACGCGGCCGCCACUUGAGGAUCACCCAAGUGGUGUGUACUUGAAACAAGUGCACAAUCAAGGACCGGGCGUGUCUACA [Omei Tryp B SS D v4]	5.02	8.77	13	7.02	7.77
UAUCGUCAGACGGCCGCCACUAGAACAUGAGGAUCACCCAUGUAGGUCCUAGAUUCCUCAAUAACUAGGACCGGGUCUGACGAAU [(Trp1)-(Ms2)-(T)'-(M)'-(Trp2)_Design14]	81.8	137	–	–	224
GAUGAUAUUGCAGAUACCAGACACAUGAGGAUCACCCAUGUCGCUGGGUUACUGGAUCGUGUCCCUUGGCAGCUGCGAUAUCAUC [Austria]	69.7	379	294	–	–
UUAAUCGUGCAUGAUACCAGUAUCCGUAGAUACAUGAGGAUCACCCAUGUCUGGUUGGAAUACCCUUGGCAGCAUGGGUUGAGGA [theeternabot_sameState_MS2_Theo_B_20]	37.1	224	238	–	–
AAAACAAUCUGAAGGAGCGUCACAUGAGGAUCACCCAUGUACAUGAGGAUCACCCAUGUGUGACAGGUAGGUCGCAGAAAAUACC [Exclusion Arginine B GF 3]	111	183	200	216	219
UAAUCCGGUCCUCGAUAGGUGAUCCUCUAACGAGGACCGGUACGGCCGCCACUCGAUAACAUGAGGAUCACCCAUGUAAUAAUAA [|T'-M'-Trp-Ms2|_Design16]	33	41.9	–	–	45.1
GCCGCUGCCGCGAUAUGUAUGGGUGUGUAACGAGGACCGGUACGGCCGCCACUCGCGAUCGCACAUGAGGAUCACCCAUGUGUCC [Exclusion Tryp A GF18]	26.5	72.4	–	–	68
GAUAUGUUUCGAAGGAGCGGCCCUUGAUCCUCAUGAGACAUGAGGAUCACCCAUGUCUCGGGCCAGGUAGGUCGCGAAAUAUAUC [Astros-omei-mod4]	30.3	32.1	19.5	19.2	21.4
CUACAUUUGUAGAAACCGGUCAACAUUAUUCGAGGACCGGUACGGCCGCCACUCGUAUCAUUUGAUACAUGAGGAUCACCCAUGU [Tryptophan A 8]	21.1	26.1	–	–	26.6
CGAUAUAAGACGGCCGCCACUAUUAAGUAUCAAAAUAAACAUGAGGAUCACCCAUGUACAUGGGAUAGGACCGGGUCCAAUAACG [A2]	40.7	123	70.2	128	208
UCGUUAUGGUCGGCCGCCACUCGCGGAGAGCAUAGCUCAAACAUGAGGAUCACCCAUGUAUCAUGGAGGACCGGGACCAUAACGU [Rxmullin variation #StaticStem]	30	46.1	–	–	42.7
GAGCUGAUGUAGAGAUUAUAUAAAAGAGAUACCAGUACAGAAAUGUACCCUUGGCAGCUCAACUUUACAUGAGGAUCACCCAUGU [Ex Theophylline A 19]	15.4	15.8	13.9	–	–
AACAUGAGGAUCACCCAUGUCCUCAUGAUUCGAGGACCGGUACGGCCGCCACUCGGUCCUCGCGAGGAGGAGUCAAAGACUCCAA [Omei Trp A SS A v2]	360	361	–	–	968
UCAUUGAGAGUCAUCCAGCGUUAAUGGGAUACCAGAGUUCUUUUACUCCCUUGGCAGCCCGGAACAUGAGGAUCACCCAUGUCUG [theeternabot_exclusion_MS2_Theo_A_39]	16.7	44.7	31.8	–	–
UGUAUGGACUGAAGGAGCGGUAGAUAGCUUGAGGAUCACCCAAGUAAUAAGGCGAAAGCCUACCAGGUAGGUCGCAGUCCAUACU	28	30.8	27.9	25.4	26.9
CCUAUGCAGUCGGCCGCCACUGAUAAAGUUAUCUUUACCUCAGAAACAUGAGGAUCACCCAUGUACAGGACCGGGACUGUAUAGG [Ex Tryptophan B 18]	14.8	14.6	–	–	15.9

Source: the supplement of paper PMC9170038
